Substitutions are numbered along the chain they refer to.

The target in the assay is Human Semaphorin3G (Abnova) (human) (UniProt Q9NS98). Kind of assay: ELISA, coated GST-Sema3G, antibody 0.00015-10 ug/ml. On the technique in general: An ELISA detects its analyte on a solid surface through an enzyme-linked reagent.
Human Semaphorin3G (Abnova) (human), sequence (Q9NS98 23-782 limits assumed, form in doubt): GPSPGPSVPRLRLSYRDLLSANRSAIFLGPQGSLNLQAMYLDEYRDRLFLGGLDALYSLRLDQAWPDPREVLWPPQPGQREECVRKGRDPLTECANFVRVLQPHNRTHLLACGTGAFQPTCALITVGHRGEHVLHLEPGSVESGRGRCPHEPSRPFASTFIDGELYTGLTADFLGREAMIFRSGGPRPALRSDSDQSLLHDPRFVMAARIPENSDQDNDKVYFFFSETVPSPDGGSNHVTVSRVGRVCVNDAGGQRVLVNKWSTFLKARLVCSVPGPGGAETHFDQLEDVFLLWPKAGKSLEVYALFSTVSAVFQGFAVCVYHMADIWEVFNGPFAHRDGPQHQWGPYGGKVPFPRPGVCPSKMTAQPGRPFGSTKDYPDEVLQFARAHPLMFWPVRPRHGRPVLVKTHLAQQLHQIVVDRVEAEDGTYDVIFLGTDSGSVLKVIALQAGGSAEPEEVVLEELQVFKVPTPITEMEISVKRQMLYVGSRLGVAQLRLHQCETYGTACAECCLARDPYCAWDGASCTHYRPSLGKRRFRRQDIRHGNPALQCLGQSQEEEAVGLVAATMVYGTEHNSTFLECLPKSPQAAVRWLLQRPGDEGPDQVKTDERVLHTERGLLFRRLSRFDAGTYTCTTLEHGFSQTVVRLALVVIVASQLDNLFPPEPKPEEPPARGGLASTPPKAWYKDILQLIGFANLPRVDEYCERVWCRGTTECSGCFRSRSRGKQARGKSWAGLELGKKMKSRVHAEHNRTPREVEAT

B1: TPP-30791 (antibody, human IgG1, kappa, V domains shown)
VH: EVQLVESGGGLLQLGGSLRLSCAASGFTFSSYYMSWVRQAPGKGLEWVSTIIKSGGYAYYPDSVKDRFTISRDNSKNTLNLQMNSLRAEDTAVYYCVKGGQGAMDYWGQGTTVTVSS
VL: EIVLTQSPATLSLSPGERATLSCRASQSIGDYLHWYQQKPGQAPRLLIKYASQSISGIPARFSGSGSGTDFTLTISSLEPEDFAVYYCQQGYSFPYTFGGGTKLEIKR
For the molecule B1, the EC50 was more than 66.7 µM.

B2: TPP-30790 (antibody, human IgG1, kappa, V domains shown)
VH: B1 VH with L12V, N80Y
VL: B1 VL with K49Y
In the case of B2, the EC50 is more than 66.7 µM.

B3: TPP-30788 (antibody, human IgG1, kappa, V domains shown)
VH: B1 VH with L12V, L14P, N80Y, N84S, K98R
VL: B1 VL with S76T
The molecule B3 returned an EC50 of more than 66.7 µM.

B4: TPP-30789 (antibody, human IgG1, kappa, V domains shown)
VH: B1 VH with L12V, L14P, T28P, N80Y, N84S, K98R
VL: B1 VL with S76T
In turn, B4 came in with an EC50 of more than 66.7 µM.

What is called EC50 is the concentration needed to bring the measured effect to its halfway point. Higher therefore signals a less potent agent.

The values are drawn from patent publication US20240254222A1.
